Data from patent US6498233, “Nucleic acid transfer system” (Winfried).

Target: scFv(FRP5)-deltaETA-deltaGAL4 (synthetic construct (Saccharomyces …))
Experiment: EMSA; […] (printed ml); 50 mM Hepes pH 7.5, 50 mM KCl, 5 mM MgCl2, […], room temperature; […] (11.3)
Conditions: tags: N-terminal FLAG and His6, C-terminal KDEL signal; chain copies: 2 (stated; dimer per site, two dimers on tandem site); label: 5'-32P

B1: G4 oligonucleotide (two GAL4 motifs) (dsDNA)
DNA 1: AGCTTGGATCCGGAGGACAGTCCTCCGGAGACCGGAGGACAGTCCTCC
DNA 2: GATCGGAGGACTGTCCTCCGGTCTCCGGAGGACTGTCCTCCGGATCCA
- binding result: binds
